What follows are sequences tested on K4 kissing-loop RNA reporter (assay: apparent KD of K4 kissing-loop reporter; higher = weaker reporter binding). Conditions: Eterna round: R107; input ligand: arginine 13.2 mM.
Method: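 RNA-MaP round R107: designed RNA switches with theophylline, tryptophan, arginine or FMN aptamers are transcribed on-chip within common flanks. They are titrated with a labelled K4 kissing-loop RNA reporter in RNA-MaP buffer (100 mM Tris pH 7.5, 80 mM KCl, 4 mM MgCl2), without ligand or with the indicated ligand. Median apparent KD per design.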
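Also: bound reporter read as fluorescence of individual clusters on recovered sequencing chips by microscopy, with normalized cluster intensities fitted with a binding model.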

In order of falling “apparent KD of K4 kissing-loop reporter” value:
1. AAGCAGUCUCUUGUAAUCAUCGAAGAUGAACGAGGACCGGUACGGCCGCCACUCGGAGUGAUGUUCCGAAGACUGCAAAAUAAAA [MatMod 16 - Jieux - Exclusion - Tryptophan A]  0.494 µM
2. GCGCGGGAGUGAUGUUCCAAGUGGUGUUAACGAGGACCGGUACGGCCGCCACUCGUUACGGCCGGGCCGUAGGAUAAACUGGCGC [Same State - Tryptophan A (Freestyle 15)]  0.418 µM
3. AAGUAGCUCUCGGCCGCCACUCCUCAGUGAUGUUGAGAUAUUAAGAGACAAUUGUCUCAUAUAAAGAGGACCGGGAGAGCUACAA [AK5 SS Tryptophan B]  0.384 µM
4. UUAUCUAUAUUCGAUACCAGUACCCUUUGUGUUGAUCCUUUUAUCAGUGAUGUUGAUGUGUACCCUUGGCAGCGGGUAUGGGUUU [KL-XTheo-B16]  0.37 µM
5. GGGCGUGGCGCGGCCGCCACUGCGCCUGGGUGCUCGCUGAGUGAUGUUCGUCGGCGGUUGGGUGGUAGGACCGGGUGCUGGCCGG [BDazzled - #12 SS Tryptophan B]  0.318 µM
6. AGUGAUGUUUUUUUUAAGAGUGAUGUUUUUCGAGGACCGGUACGGCCGCCACUCGAGUGAUGAGUGAGGUGUUGUGAUGUUUAGU [cxmullin]  0.314 µM
7. GUCCUGAGUGAUGUUCGGGUCGUUCGGGAAGGAGCGCCCGCAAGGGCAGGUAGGUCGCCCGGAUCUCUCAGGUAACUGAGAGACC [#2 Same State - Arginine A Attempt #29 (HarryS)]  0.303 µM
8. UUGUUUGGUUGAGAGGUUGGGCGAGAUGAUACCAGUAUAGUAGAGUACCCUUGGCAGCAUAGGAGAGAUAUAGUGAUGUUGUAUG [SSTheophA.U]  0.302 µM
9. UGGAGUUGACGAAAAGUCAACUCCUGAGAAGGAGCGGACGAAAGUCCAGGUAGGUCGCUCACUACCAGUGAUGUUGGUACUUUAA  0.285 µM
10. AGGUUUUGAUUAGGAUAUGCACUGAGGAGGAGAAUAUAGUGAUGUUAUAUAAUAGGAAUUAGUAGAGUAGAAGGGAUUGAGGUUU [SSFMNB.U]  0.223 µM
11. GCGCGGCAGGCGGCCGCCACUCUGACGAGCCACAGUGAUGUUGUGGUCGGAGUAACGUCUUCAUAGAGGACCGGGUUUGUUGUUC [Same State Typtophan A GF 26]  0.212 µM
12. UCGACAGUGAACGAUACCAGCGUCACGUGGCUGGUGGUCACAUGAGUGAUGUUCAUGUAACGCCCUUGGCAGCGUGCACGUAUCC [KL-XTheo-B9]  0.206 µM
13. GCCGUACGCAUGGAUACCAGUCUUUCACGACUGGACAUGGAGUGAUGUUUCGUGAUGCUAGACCCUUGGCAGCCAUGCGUACGGC  0.198 µM
14. UUUGGCCACAGAGAUACCAGUCAUAUCGCUCUGGAGUGAUGUUCCGGAACAUGCGGAGAAGACCCUUGGCAGCUCAUGACGGUAA [Exclusion Theophylline B GF 2]  0.194 µM
15. GGAGCAGGUGAAGGAUAUCCCGGGCCAGAGUGAUGUUCUGGAUCCCUUGCCGUGUCUAAACGGGUGGGAGAAGGUCACUGAUAAG [Erinxe]  0.187 µM
16. GGAGUUACCUGGGAUACCAGUCGGAGUCCGAGAGCUCGGAGUGAUGUUCUGGGAUGUUUCGGCCCUUGGCAGCUCUGGGACUCCC [#2 Exclusion - Theophylline B Attempt #10 (HarryS)]  0.181 µM
17. ACAGAGGUAACCUGCAGUGAUGUUGCGGAUACCAGCUCACGAAACAGCCCUUGGCAGCCGCCGUCACUAACACGGUGGAUACAGU [theeternabot_exclusion_KL_Theo_A_49]  0.168 µM
18. AGAACUGUCUGAGAUACCAGCCAGGAAGUGAUGUUUCCAGCUCGACGAAAGUCGAGCCAUGGCCCUUGGCAGCUCAGACAGUUCA [Omei KL Theo B SS A v4]  0.147 µM
19. GGUCGAGUGAUGUUCGAUGUAAUGCAUUCAGAGGAUAUAGGAUUGGCUAGAAGGCUGAAUCGUUCUUCGAGUGAUGUUCGAGGAU [Same State FMN A GF 7]  0.141 µM
20. UGCAGUGAUGUUGCUAUUUUUCUUGAUUAACGAGGACCGGUACGGCCGCCACUCGAUUUCUCUCUAAUCCAGUAUGUUGUUUAAU [whbob_EX_Tryp_A_t4]  0.137 µM
21. GGCCUGGUCGCCUAGUGAUUGUCGGUAGGACGAGGACCGGUACGGCCGCCACUCGGCUUACCCAGUGAUGUUGGGUAUCCGUGGC [Onercelama]  0.136 µM
22. CCUGAAUCAGUGAGUGAUGUUCACGUCGAUACCAGCUAGGAUACUAGCCCUUGGCAGCGACAAUUGCCAAGUGUGGCUAGUCAAA [Theo B SS t8]  0.134 µM
23. ACGUAGUUCUAGGAUACCAGCCAAAUAGCCAGGACGAGAGUCCUGGCUGCCAGUGAUGUUGGCCCUUGGCAGCCUAGAACUACGA [Theo B Ex Mod Omei v10]  0.134 µM
24. UACAUUGCAGUCUUCUUCGUCCUAGAAGACUAGGAUAUCAGGAAACUGAGAAGGAGUCUCUGCAGUGAUGUUGCAGCUAGGACGA [[K]'-[F2]'-[F1]'-[F1]-[F2]-[K1]-[K2]-[F]''_Design1]  0.134 µM
25. AGUGAUGUAUGGCGGUUGGUCACUUAGGAUCAGGAUAUAUAAACAAAUAGAAGGGAUGGCGGAGUGAUGUUCCGCCGGCCGCCAU [FMN A Exl V2]  0.13 µM
26. AAUAUAUAGUGAAGGAGCGCGAUAAGCAGUGAUGUUGCUUAGCUAUUAUUCAUUAUUUUUACGCAGGUAGGUCGCACUAUAUAUA [JR_ExcArginiB_Sub014]  0.128 µM
27. GCAUCCUCUGCAGGAUAUCGCGGAGUGAUGUUCCGCGCAUGCCAUAGCGAAAGCUAUGGCAUGCGACGAGAAGGGCAGAGGAUGC  0.124 µM
28. GGGUCUGCUCGAAGGAGCGCCCUGACAGGUUGCUGCCGUGGGCAGUGAUGUUGCUCAGUCCGGCAGGUAGGUCGCGAGCAGACCC  0.118 µM
29. AAAAUUAUCUGAAGGAGCGUGAAAUAAUAUUAAACAUAACAACCCAGUGAUGUUGGGUUAUCACAGGUAGGUCGCAGAUGUAGAA [Same State Arginie B GF 25]  0.113 µM
30. AAGUGUGUGGCGGCCGCCACUAGAAUCCAGUGAUGUUGGAGAUAUCAGGUAACUGAUAUCCAACAUAGGACCGGGCCAUAUAGAA [Same State - Tryptophan B (Freestyle 11)]  0.104 µM
31. UGACUGGACUGAAGGAGCGCGAAACUCCUAGUGAUGUUAGGAAAACGAGACAAAGUCUCGACGCAGGUAGGUCGCAGUCUAGUCU  0.102 µM
32. UGCACGGGCUCGGCCGCCACUCCAGCGGGUCGAAAGGUCCGCUACUGAGUGAUGUUCGGUUGGAGGAGGACCGGGAGCCCGUGCA [#2 Exclusion - Tryptophan B Attempt #28 (HarryS)]  0.0979 µM
33. ACUGAGCAUGCGGCCGCCACUUCAGAACGUCGCCCGGAGGGCGACGCCUCCGCAGUGAUGUUGCGGAGGACCGGGCAUGUUCAGA [Omei KL Tryp B Exc A v4]  0.0784 µM

Same assay, conditions: Eterna round: R107; input ligand: none

In order of rising “apparent KD of K4 kissing-loop reporter” value:
1. UGACUGGACUGAAGGAGCGCGAAACUCCUAGUGAUGUUAGGAAAACGAGACAAAGUCUCGACGCAGGUAGGUCGCAGUCUAGUCU  0.103 µM
2. UCGGACCCUGGAGGAUAUGAGUCUAGUGAUGUUAGGCGGUCCAUGCCGGUGCGGCGUUAUGCCCUUUUAGAAGGCCAGGGUCCGA [#2 Exclusion - FMN B Attempt #14 (HarryS)]  0.107 µM
3. UGCACGGGCUCGGCCGCCACUCCAGCGGGUCGAAAGGUCCGCUACUGAGUGAUGUUCGGUUGGAGGAGGACCGGGAGCCCGUGCA [#2 Exclusion - Tryptophan B Attempt #28 (HarryS)]  0.122 µM
4. GGCAGUGAUGUUGCCUAAGCAACGCAUGCAGAGGAUAUUCGUUCGGGAAGAAGGCUGCAGCGUUCUCUCGUCAGUGAUGUUGGCG [Same State FMN A GF 24]  0.127 µM
5. AGGUUUUGAUUAGGAUAUGCACUGAGGAGGAGAAUAUAGUGAUGUUAUAUAAUAGGAAUUAGUAGAGUAGAAGGGAUUGAGGUUU [SSFMNB.U]  0.172 µM
6. GGCCUGGUCGCCUAGUGAUUGUCGGUAGGACGAGGACCGGUACGGCCGCCACUCGGCUUACCCAGUGAUGUUGGGUAUCCGUGGC [Onercelama]  0.177 µM
7. AGUGAUGUAUGGCGGUUGGUCACUUAGGAUCAGGAUAUAUAAACAAAUAGAAGGGAUGGCGGAGUGAUGUUCCGCCGGCCGCCAU [FMN A Exl V2]  0.177 µM
8. AACUUUUAAUGAAUUACAUUUUAUUUAUCUCGAGGACCGGUACGGCCGCCACUCGUACUAUAGUGAUGUUAUAGAUAAGUCCUAA [JR_ExcTryptoA_Sub019]  0.179 µM
9. UCGGAUGUUCUGUCGAGAUGAGCAAUAGCACGAGGACCGGUACGGCCGCCACUCGACCCAGUGAUGUUGGGUGGCUAAGUUCAGC [Geragean]  0.208 µM
10. UCGACAGUGAACGAUACCAGCGUCACGUGGCUGGUGGUCACAUGAGUGAUGUUCAUGUAACGCCCUUGGCAGCGUGCACGUAUCC [KL-XTheo-B9]  0.22 µM
11. AUACGCGAUAGCGUAUAUAACAAAUCAGAAGGAGCGUGGAAGUACACAGGUAGGUCGCUGAAAAUAGGACUAGUGAUGUUAGUUA [JR_Nu_SSArginiA_Sub026]  0.232 µM
12. GCCGUACGCAUGGAUACCAGUCUUUCACGACUGGACAUGGAGUGAUGUUUCGUGAUGCUAGACCCUUGGCAGCCAUGCGUACGGC  0.242 µM
13. CUUGCCCUUUCGGCCGCCACUCCGAGUGAUGUUGGGAUGUUCGGUGCAGCCAUUUAGAUGUCAGUGAGGACCGGGAAAUUAUGCG [theeternabot_exclusion_KL_Trp_B_9]  0.251 µM
14. AGAAGGUCAAAGACCUUCGUGCACACUGAUACCAGUCGCGAAAGCGACCCUUGGCAGCAGGGCAGUGAUGUUGCCAAGUGCACAA [Omei KL Theo A SS A v2]  0.267 µM
15. CGAGUGAUGUUCGUUCUUUUAUUUUUUUGACAGGAUAUGCGGAAACGCAGAAGGGUCACCUUUGAGUUAAAAGAAUUUAAGUUAU [Ex FMN A 24]  0.353 µM
16. GCAGCAAAUAAACGAGUGAUGUUCGACGAUACCAGCCUCGAUAGAGGCCCUUGGCAGCGUAAAUGAUCACAAAGCCAAGGGCUGC [#SwitchBubble 1]  0.396 µM
17. UUAUCUAUAUUCGAUACCAGUACCCUUUGUGUUGAUCCUUUUAUCAGUGAUGUUGAUGUGUACCCUUGGCAGCGGGUAUGGGUUU [KL-XTheo-B16]  0.425 µM
18. GUCCUGAGUGAUGUUCGGGUCGUUCGGGAAGGAGCGCCCGCAAGGGCAGGUAGGUCGCCCGGAUCUCUCAGGUAACUGAGAGACC [#2 Same State - Arginine A Attempt #29 (HarryS)]  0.448 µM
19. UUGUUUGGUUGAGAGGUUGGGCGAGAUGAUACCAGUAUAGUAGAGUACCCUUGGCAGCAUAGGAGAGAUAUAGUGAUGUUGUAUG [SSTheophA.U]  0.477 µM
20. GGGCGUGGCGCGGCCGCCACUGCGCCUGGGUGCUCGCUGAGUGAUGUUCGUCGGCGGUUGGGUGGUAGGACCGGGUGCUGGCCGG [BDazzled - #12 SS Tryptophan B]  0.581 µM
21. GUAUUGUGCCUGGAUACCAGACACCCGAGUGAUGUUCGGAGCAGAGUGAUGUUCUAAUAAGUCCCUUGGCAGCCGGUCGCAGUCG [Same State Theophylline B gf 4]  0.914 µM

— the supplement of paper PMC9170038
